For 167 variants, self-cleavage results are on record in the RNAGym collection of RNA variant scans (doi:10.7554/elife.90254).

The labels stand for the following.
B1: LINE1-full (parent)
chain: UACGUAGGUGGUUUUCCCCUGAUAGUGCUAAGGGGGCCUGGAAGUUUGGACUGGGCAGAGCUCAACACAGCGUGGCAAAGUGGCUGUGGCUAGACUGCCUCUCUGGAUUCCUCGUCACUCAGCAGGGCAUCUCUGAGAGAAAUGCC

The data set covers variants of B1. Description: self-cleavage, relative activity (ratio to wild type); higher = more cleavage; in vitro, sequencing; the parent is a self-cleaving ribozyme.
For the variant C61U G105A, the self-cleavage turned out to be 0.02.

For C61U U115C, the self-cleavage is 0.02.

Take U62C: the self-cleavage is 0.05.

In the case of U62A, the self-cleavage was 0.04.

With U62G, the self-cleavage was found to be 0.05.

On to A64G G75A, for which the self-cleavage was determined as 0.17.

For U62G A78G, the self-cleavage came out at 0.06.

On to U62A C131U, for which the self-cleavage worked out at 0.02.

As to U62A U100A, the self-cleavage came out at 0.05.

Consider U62A U100C, for which the self-cleavage was determined as 0.23.

On to U62C G97A, for which the self-cleavage worked out at 0.03.

For the variant C61U A65G, the self-cleavage came to 0.06.

On to C63U U104C, for which the self-cleavage is 0.1.

On to C61U U104A, for which the self-cleavage stood at 0.02.

Consider A64G G80A, for which the self-cleavage turned out to be 0.39.

A64U G80U: the self-cleavage was determined as 0.47.

For A64U A65U, the self-cleavage was found to be 0.02.

Regarding U62C U132C, the self-cleavage was found to be 0.06.

Take A64U U109C: the self-cleavage came out at 0.25.

For A64U U109G, the self-cleavage worked out at 0.23.

In the case of A64U G122C, the self-cleavage came out at 0.44.

Turning to A64U G122A, the self-cleavage worked out at 0.54.

For the variant A64U U102C, the self-cleavage stood at 0.34.

In the case of A64U A140G, the self-cleavage came out at 0.39.

C61U U130C: the self-cleavage was determined as 0.05.

With A64U G127C, the self-cleavage was 0.6.

With U62C C133A, the self-cleavage was found to be 0.06.

Turning to C61U U91C, the self-cleavage amounted to 0.03.

In the case of U62G A69U, the self-cleavage turned out to be 0.05.

Turning to A64G G74A, the self-cleavage worked out at 0.12.

As for A64C U104A, the self-cleavage worked out at 0.28.

On to A64G A79U, for which the self-cleavage is 0.34.

With A64U A94U, the self-cleavage was determined as 0.26.

With C63U U96A, the self-cleavage stood at 0.05.

For C63U U96C, the self-cleavage turned out to be 0.

For the variant U62A U119C, the self-cleavage is 0.03.

As for A64G A77G, the self-cleavage is 0.42.

A64G A77U: the self-cleavage was found to be 0.23.

Regarding A64U G125A, the self-cleavage is 0.34.

As for A64U G125U, the self-cleavage turned out to be 0.41.

For the variant A64U C133U, the self-cleavage was found to be 0.49.

For the variant C63G U130C, the self-cleavage stood at 0.34.

For A64U U96A, the self-cleavage worked out at 0.06.

With A64U U85A, the self-cleavage came out at 0.06.

Regarding U62C C113U, the self-cleavage came out at 0.

Take A65C G105U: the self-cleavage amounted to 0.03.

For the variant A64U C116A, the self-cleavage came to 0.37.

Turning to C63A A142G, the self-cleavage is 0.06.

With C63A A142U, the self-cleavage stood at 0.05.

Regarding C63U U130C, the self-cleavage was found to be 0.39.

Regarding U62A U134C, the self-cleavage is 0.05.

As to U62A U134G, the self-cleavage was 0.1.

Turning to A65C G97A, the self-cleavage stood at 0.04.

Turning to C61U A124U, the self-cleavage was found to be 0.03.

Turning to C61U A124G, the self-cleavage worked out at 0.04.

As for C61U A77G, the self-cleavage was found to be 0.06.

For the variant A64G U134C, the self-cleavage turned out to be 0.28.

For C61U A129U, the self-cleavage is 0.02.

With U62A C116A, the self-cleavage was determined as 0.05.

As to U62C A94U, the self-cleavage was 0.08.

With A64G A140U, the self-cleavage is 0.3.

With U62C C63A, the self-cleavage was 0.01.

In the case of U62C C63U, the self-cleavage was found to be 0.07.

With A64G G125A, the self-cleavage was 0.31.

For the variant A64C G75U, the self-cleavage was 0.08.

Consider A64C U119C, for which the self-cleavage stood at 0.35.

As to U62C A121C, the self-cleavage came out at 0.15.

Turning to A64U C111A, the self-cleavage amounted to 0.35.

For the variant A65G A78U, the self-cleavage stood at 0.03.

As for A64G G105U, the self-cleavage was determined as 0.15.

Regarding A64G A141G, the self-cleavage amounted to 0.21.

In the case of C63U U115C, the self-cleavage is 0.32.

In the case of A64G A94G, the self-cleavage turned out to be 0.06.

Consider A64G A94U, for which the self-cleavage came out at 0.08.

On to U62C G106A, for which the self-cleavage came out at 0.08.

Take U62A A141U: the self-cleavage was found to be 0.01.

Turning to A64C A107G, the self-cleavage was 0.36.

Turning to A64G U143A, the self-cleavage was found to be 0.24.

On to A65G A92U, for which the self-cleavage is 0.1.

For A65G A92C, the self-cleavage is 0.

In the case of A65G A92G, the self-cleavage turned out to be 0.09.

As for C61U A117G, the self-cleavage came out at 0.05.

Regarding U62A A140U, the self-cleavage came out at 0.03.

Consider U62A A140G, for which the self-cleavage came to 0.04.

In the case of A64U A141C, the self-cleavage came out at 0.46.

Take U62C C120U: the self-cleavage came out at 0.06.

On to A65G A121C, for which the self-cleavage was found to be 0.07.

As to A65G A121U, the self-cleavage was 0.04.

With A65C A79G, the self-cleavage amounted to 0.

As for U62C G125A, the self-cleavage stood at 0.06.

With U62A C133U, the self-cleavage came out at 0.04.

Take A64G U115C: the self-cleavage came out at 0.27.

With U62C A67G, the self-cleavage stood at 0.09.

Consider U62C A67U, for which the self-cleavage stood at 0.05.

A64G U73G: the self-cleavage stood at 0.15.

A65G A69C: the self-cleavage was determined as 0.

Take A65G A69U: the self-cleavage stood at 0.07.

For the variant A65G A69G, the self-cleavage is 0.

For U62G C84G, the self-cleavage worked out at 0.49.

For the variant A64G G93A, the self-cleavage turned out to be 0.04.

On to U62C G72U, for which the self-cleavage turned out to be 0.03.

On to U62C G72C, for which the self-cleavage stood at 0.03.

Regarding A64U U108C, the self-cleavage was 0.65.

On to U62C G70A, for which the self-cleavage was 0.01.

On to C61U U73C, for which the self-cleavage was 0.02.

Consider A64U U91C, for which the self-cleavage was 0.18.

For U62A U91C, the self-cleavage stood at 0.04.

On to C61U U96C, for which the self-cleavage was 0.03.

As for C63A A117G, the self-cleavage stood at 0.08.

For the variant A64C A117G, the self-cleavage worked out at 0.42.

Turning to U62A A64G, the self-cleavage turned out to be 0.05.

On to U62A A64C, for which the self-cleavage turned out to be 0.11.

In the case of U62C A107G, the self-cleavage stood at 0.06.

On to U62C A65G, for which the self-cleavage was found to be 0.1.

For A64U A138C, the self-cleavage worked out at 0.64.

As for A64U A138G, the self-cleavage turned out to be 0.52.

With A64G C84A, the self-cleavage came to 0.05.

In the case of A64G C84U, the self-cleavage was determined as 0.1.

For A64G A124U, the self-cleavage amounted to 0.29.

C61U U85A: the self-cleavage is 0.03.

Consider U62A C71U, for which the self-cleavage amounted to 0.

In the case of U62A C71G, the self-cleavage came to 0.05.

On to A64U A117G, for which the self-cleavage is 0.53.

Regarding U62G A65U, the self-cleavage worked out at 0.16.

For C63U U102A, the self-cleavage came out at 0.33.

For C63U U102C, the self-cleavage is 0.28.

Consider A64U G72C, for which the self-cleavage was determined as 0.25.

Turning to A64U A77C, the self-cleavage was determined as 0.39.

On to A64G U108A, for which the self-cleavage was 0.12.

For U62C A129C, the self-cleavage was found to be 0.19.

Turning to U62C A77C, the self-cleavage came to 0.05.

Regarding U62G A138C, the self-cleavage amounted to 0.09.

With U62G A141G, the self-cleavage was found to be 0.08.

With C61U U108C, the self-cleavage was found to be 0.01.

As for U62G G82U, the self-cleavage was found to be 0.03.

Take A65C U87C: the self-cleavage was found to be 0.04.

U62A U109C: the self-cleavage was found to be 0.05.

On to U62C C131A, for which the self-cleavage turned out to be 0.03.

As for A64C A67U, the self-cleavage was 0.11.

For U62C C99A, the self-cleavage was determined as 0.03.

A64G A138G: the self-cleavage was 0.21.

A64G G137A: the self-cleavage came out at 0.21.

Regarding A64G G88C, the self-cleavage amounted to 0.04.

As for C63A A124U, the self-cleavage turned out to be 0.03.

As to A65C A124G, the self-cleavage came out at 0.1.

With A64G U130A, the self-cleavage is 0.28.

Regarding A64G U130C, the self-cleavage stood at 0.33.

Consider U62C G126A, for which the self-cleavage was 0.04.

For U62A U143A, the self-cleavage is 0.04.

On to A64C C103A, for which the self-cleavage stood at 0.29.

Turning to C63U A124G, the self-cleavage came to 0.09.

For the variant A64U G82A, the self-cleavage worked out at 0.65.

As to A64G A129G, the self-cleavage came to 0.29.

A64G A129U: the self-cleavage was 0.25.

U62C U108G: the self-cleavage was 0.

U62C U108C: the self-cleavage came out at 0.05.

In the case of C61G U100C, the self-cleavage turned out to be 0.06.

In the case of A64G A107C, the self-cleavage is 0.12.

U62C A92U: the self-cleavage came out at 0.04.

On to U62C A92G, for which the self-cleavage came to 0.04.

For the variant A64G U102C, the self-cleavage was found to be 0.34.

With U62A A94G, the self-cleavage turned out to be 0.04.

In the case of A64C U81C, the self-cleavage came out at 0.38.

With C63A A64G, the self-cleavage was 0.02.

For A64G A121U, the self-cleavage amounted to 0.22.

For the variant A64G A121C, the self-cleavage is 0.24.

Take A64C A124U: the self-cleavage is 0.27.
